The source of these data is patent US20260209386A1 (MYTHIC THERAPEUTICS, published 2026).

Positions count from the first letter of the chain named.

To fix the notation:
T1: Human PTK7 (human, UniProt Q13308 31-1070)
T1 sequence: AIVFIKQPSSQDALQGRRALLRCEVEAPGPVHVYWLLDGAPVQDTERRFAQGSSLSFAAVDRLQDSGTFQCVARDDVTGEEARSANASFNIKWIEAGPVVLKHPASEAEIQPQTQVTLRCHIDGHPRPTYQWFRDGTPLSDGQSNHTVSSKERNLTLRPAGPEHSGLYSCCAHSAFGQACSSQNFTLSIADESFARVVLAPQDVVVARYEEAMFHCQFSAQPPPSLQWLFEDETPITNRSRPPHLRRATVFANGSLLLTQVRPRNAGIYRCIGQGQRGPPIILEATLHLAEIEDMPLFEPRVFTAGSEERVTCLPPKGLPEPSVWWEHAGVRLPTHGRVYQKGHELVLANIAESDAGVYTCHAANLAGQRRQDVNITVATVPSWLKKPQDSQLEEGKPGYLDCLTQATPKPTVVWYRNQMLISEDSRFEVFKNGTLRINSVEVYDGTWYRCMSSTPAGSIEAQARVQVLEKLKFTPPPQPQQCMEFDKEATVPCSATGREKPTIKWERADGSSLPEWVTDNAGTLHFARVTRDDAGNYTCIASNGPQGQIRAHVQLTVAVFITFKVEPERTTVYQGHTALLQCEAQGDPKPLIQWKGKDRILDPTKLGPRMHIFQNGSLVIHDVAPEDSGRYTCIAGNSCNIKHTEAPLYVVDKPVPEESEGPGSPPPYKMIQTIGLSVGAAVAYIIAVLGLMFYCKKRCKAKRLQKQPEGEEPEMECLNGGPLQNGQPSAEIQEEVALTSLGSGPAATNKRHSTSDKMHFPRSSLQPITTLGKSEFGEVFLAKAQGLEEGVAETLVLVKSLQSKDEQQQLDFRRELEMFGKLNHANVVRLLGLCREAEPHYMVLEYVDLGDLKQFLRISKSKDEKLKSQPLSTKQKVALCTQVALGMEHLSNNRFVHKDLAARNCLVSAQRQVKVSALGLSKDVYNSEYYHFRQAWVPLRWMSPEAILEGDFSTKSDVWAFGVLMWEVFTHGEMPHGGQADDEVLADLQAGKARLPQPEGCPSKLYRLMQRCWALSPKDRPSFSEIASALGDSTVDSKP

T2: Human PTK7/CCK4 Protein, His Tag, Acro Biosystems PT7-H52H3 (human, UniProt Q13308 31-704)
T2 construct: bought protein; also called Human PTK7 Protein, His Tag, Acro Biosystems; not shown: His tag
T2 sequence: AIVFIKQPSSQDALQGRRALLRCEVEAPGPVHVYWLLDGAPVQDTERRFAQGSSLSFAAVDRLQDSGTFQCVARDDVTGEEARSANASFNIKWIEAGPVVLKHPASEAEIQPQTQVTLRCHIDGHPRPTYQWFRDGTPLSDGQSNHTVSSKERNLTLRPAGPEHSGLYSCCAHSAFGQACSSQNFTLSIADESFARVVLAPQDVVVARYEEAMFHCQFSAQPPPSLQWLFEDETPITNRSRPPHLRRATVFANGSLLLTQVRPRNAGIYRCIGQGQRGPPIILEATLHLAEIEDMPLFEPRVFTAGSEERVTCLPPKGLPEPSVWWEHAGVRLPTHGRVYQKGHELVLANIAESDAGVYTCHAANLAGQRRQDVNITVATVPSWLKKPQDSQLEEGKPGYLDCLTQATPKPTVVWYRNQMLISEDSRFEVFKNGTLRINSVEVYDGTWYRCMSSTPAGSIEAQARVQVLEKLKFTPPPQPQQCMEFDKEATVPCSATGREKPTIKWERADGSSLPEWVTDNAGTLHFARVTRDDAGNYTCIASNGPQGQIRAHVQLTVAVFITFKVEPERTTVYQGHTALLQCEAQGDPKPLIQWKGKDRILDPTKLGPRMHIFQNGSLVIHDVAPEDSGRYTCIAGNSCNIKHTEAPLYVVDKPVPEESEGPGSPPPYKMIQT

B1: MYT10899 (antibody, V domains shown)
VH: EVQLVESGGGLVQPGGSLRLSCTASGFSLSNYVMNWVRQAPGKGLEWVGIIDSHGSTYYASWAKGRFTISRDTSKNTVYLQMNSLRAEDTAVYFCARGLYLWGQGTLVTVSS
VL: EIVMTQSPSTLSASVGDRVIITCQSSQSVYNNNLLAWYQQKPGKAPKLLIYYTSNLASGVPSRFSGSGSGAEFTLTISSLQPDDFATYYCQGGYNGNIYAFGQGTKLTVL
B2: MYT10917 (antibody, V domains shown)
VH: B1 VH with H54S, F94Y
VL: B1 VL
B3: MYT10952 (antibody, V domains shown)
VH: EVQLVESGGGLVQPGGSLRLSCTASGHSLSSYAMGWVRQAPGKGLEWVGFINAGGNTYYANWAKGRFTISRDTSKNTVYLQMNSLRAEDTAVYFCARRYSRASGWYDLWGQGTLVTVSS
VL: EIVMTQSPSTLSASVGDRVIITCQASQSISSYLAWYQQKPGKAPKLLIYAASTLASGVPSRFSGSGSGAEFTLTISSLQPDDFATYYCQSYSYSSGIDYGDVFGQGTKLTVL
B4: MYT11017 (antibody, V domains shown)
VH: B3 VH with H27F
VL: B3 VL with G96H
B5: MYT10955 (antibody, V domains shown)
VH: B3 VH with H27F, S30H
VL: B3 VL
B6: MYT11005 (antibody, V domains shown)
VH: B3 VH with H27F
VL: B3 VL with S52H
B7: MYT10989 (antibody, V domains shown)
VH: B3 VH with H27F, L108H
VL: B3 VL
B8: MYT11033 (antibody, V domains shown)
VH: EVQLVESGGGLVQPGGSLRLSCTASGLSLSSHWMSWVRQAPGKGLEWVGVISAGGNTYYANWAKGRFTISRDTSKNTVYLQMNSLRAEDTAVYFCARGDDGYTNAAYVSNLWGQGTLVTVSS
VL: EIVMTQSPSTLSASVGDRVIITCQASQSISSWLSWYQQKPGKAPKLLIYKASTLASGVPSRFSGSGSGAEFTLTISSLQPDDFATYYCQSYFDSTTIAFGQGTKLTVL
B9: MYT11056 (antibody, V domains shown)
VH: B8 VH with H32Y, D99H
VL: B8 VL
B10: MYT11053 (antibody, V domains shown)
VH: B8 VH with H32Y, A96H
VL: B8 VL
B11: MYT11349 (antibody, V domains shown)
VH: EVQLVESGGGLVQPGGSLRLSCTASGIDLSNYAVIWVRQAPGKGLEWVGHIYTYDTTYYANWAKGRFTISRDTSKNTVYLQMNSLRAEDTAVYFCARSFSDISDLIKLWGQGTLVTVSS
VL: EIVMTQSPSTLSASVGDRVIITCQASQSLYNNKDLAWYQQKPGKAPKLLIYEASKLASGVPSRFSGSGSGAEFTLTISSLQPDDFATYYCLGEFSCGSGDCLAFGQGTKLTVL
notes: IgG
B12: MYT11390 (antibody, V domains shown)
VH: B11 VH with H50I
VL: B11 VL with N31H
notes: IgG
B13: MYT11363 (antibody, V domains shown)
VH: B11 VH with H50I, K64H
VL: B11 VL
notes: IgG
B14: MYT11352 (antibody, V domains shown)
VH: B11 VH with H50I, T53H
VL: B11 VL
notes: IgG
B15: MYT11409 (antibody, V domains shown)
VH: B11 VH with H50I
VL: B11 VL with S98H
notes: IgG
B16: MYT11376 (antibody, V domains shown)
VH: B11 VH with H50I, K107H
VL: B11 VL
notes: IgG
B17: MYT11369 (antibody, V domains shown)
VH: B11 VH with H50I, S100H
VL: B11 VL
notes: IgG
B18: MYT11356 (antibody, V domains shown)
VH: B11 VH with H50I, T57H
VL: B11 VL
notes: IgG
B19: MYT11394 (antibody, V domains shown)
VH: B11 VH with H50I
VL: B11 VL with L35H
notes: IgG
B20: MYT11354 (antibody, V domains shown)
VH: B11 VH with H50I, D55H
VL: B11 VL
notes: IgG
B21: MYT11393 (antibody, V domains shown)
VH: B11 VH with H50I
VL: B11 VL with D34H
notes: IgG
B22: MYT11410 (antibody, V domains shown)
VH: B11 VH with H50I
VL: B11 VL with G99H
notes: IgG
B23: MYT11355 (antibody, V domains shown)
VH: B11 VH with H50I, T56H
VL: B11 VL
notes: IgG
B24: MYT11392 (antibody, V domains shown)
VH: B11 VH with H50I
VL: B11 VL with K33H
notes: IgG
B25: MYT11398 (antibody, V domains shown)
VH: B11 VH with H50I
VL: B11 VL with S54H
notes: IgG
B26: MYT11396 (antibody, V domains shown)
VH: B11 VH with H50I
VL: B11 VL with E52H
notes: IgG
B27: MYT11357 (antibody, V domains shown)
VH: B11 VH with H50I, Y58H
VL: B11 VL
notes: IgG

The target in the first assay is T1, Human PTK7. As to the kind of experiment: cell-based or functional assay.
Consider B1, for which the “Internalization, FOW @ 25 nM (fold over the wildtype, parental antibody)” value was 1.14 fold over parental antibody.
Turning to B2, the “Internalization, FOW @ 25 nM (fold over the wildtype, parental antibody)” value was 1.29 fold over parental antibody.
For B3, the “Internalization, FOW @ 25 nM (fold over the wildtype, parental antibody)” value was 1.06 fold over parental antibody.
Take B4: the “Internalization, FOW @ 25 nM (fold over the wildtype, parental antibody)” value was 1.2 fold over parental antibody.
Turning to B5, the “Internalization, FOW @ 25 nM (fold over the wildtype, parental antibody)” value was 1.05 fold over parental antibody.
As for B6, the “Internalization, FOW @ 25 nM (fold over the wildtype, parental antibody)” value is 1.05 fold over parental antibody.
In the case of B7, the “Internalization, FOW @ 25 nM (fold over the wildtype, parental antibody)” value was 1.09 fold over parental antibody.
In the case of B8, the “Internalization, FOW @ 25 nM (fold over the wildtype, parental antibody)” value is 1.19 fold over parental antibody.
On the same count and under the same terms, the same measure for B9: 1.1 fold over parental antibody; for B10: 1.25 fold over parental antibody.

A further assay deals with T2, Human PTK7/CCK4 Protein, His Tag, Acro …. As to the kind of experiment: BLI, antibody on anti-human Fc sensor, 50 nM PTK7.
As to B11, the binding result is given as “binds”.
For the molecule B12, the binding result is listed as “binds”.
With B13, the binding result is on record as “binds”.
For B14, the binding result was “binds”.
Consider B15, for which the binding result is on record as “binds”.
Still for that read-out and setting: the same measure for B16: “binds”; for B17: “binds”.
On the same count and under the same terms, under B18 stands “binds”; under B19, “binds”; under B20, “binds”.
On to B21, for which the binding result is “binds”.
For B22, the binding result is on record as “binds”.
As for B23, the binding result was “binds”.
Consider B24, for which the binding result is listed as “binds”.
As to B25, the binding result is listed as “binds”.
Regarding B26, the binding result is recorded as “binds”.
On to B27, for which the binding result is reported as “binds”.
